From patent publication US5849493

Molecular target: STF-1 / Pbx complex C2 of Tu-6 nuclear extract (UniProt P52947+P40424)
Assay: EMSA
Conditions: off-rate with 1000-fold unlabeled TSEII, room temperature; C2 supershift/block by STF-1 and Pbx antisera

STF-1 / Pbx complex C2 of Tu-6 nuclear extract, sequence (P52947 whole entry, chain 1 of 2): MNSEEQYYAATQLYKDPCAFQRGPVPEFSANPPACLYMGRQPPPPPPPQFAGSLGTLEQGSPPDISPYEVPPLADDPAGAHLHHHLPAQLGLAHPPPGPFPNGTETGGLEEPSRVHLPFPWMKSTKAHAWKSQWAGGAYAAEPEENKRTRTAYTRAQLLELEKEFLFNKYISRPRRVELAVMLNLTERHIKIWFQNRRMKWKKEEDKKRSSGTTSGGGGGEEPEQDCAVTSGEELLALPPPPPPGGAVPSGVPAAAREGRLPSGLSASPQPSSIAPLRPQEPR
STF-1 / Pbx complex C2 of Tu-6 nuclear extract, sequence (P40424 whole entry, chain 2 of 2): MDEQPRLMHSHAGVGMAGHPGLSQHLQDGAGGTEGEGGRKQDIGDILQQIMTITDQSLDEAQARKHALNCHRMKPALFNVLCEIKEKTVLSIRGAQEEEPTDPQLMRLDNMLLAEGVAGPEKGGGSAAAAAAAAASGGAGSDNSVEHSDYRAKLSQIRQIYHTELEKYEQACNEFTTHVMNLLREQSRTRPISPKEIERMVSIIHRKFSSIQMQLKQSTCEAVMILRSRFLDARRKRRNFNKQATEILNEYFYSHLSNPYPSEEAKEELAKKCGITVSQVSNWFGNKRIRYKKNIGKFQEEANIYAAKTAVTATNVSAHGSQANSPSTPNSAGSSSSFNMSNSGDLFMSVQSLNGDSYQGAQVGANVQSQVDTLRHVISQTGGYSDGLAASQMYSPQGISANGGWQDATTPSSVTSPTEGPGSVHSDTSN

## GATCTCAGTAATTAATCATGCA / AGTCATTAATTAGTACGTCATG [somatostatin TSEII]
  koff (min (half-life)): 15
